# Experimental data as given in article PMC12401477 (Cell reports, 2025).
# What was measured:
# mass photometry [1] = molecular target: the molecule itself; experiment: mass photometry
# mass photometry [2] = molecular target: the molecule itself; experiment: mass photometry; remark: listed apart in the source
protein,measurement,setting,value
"N-terminally extended IRF7 isoform (exIRF7, intron 1 retained) with C-terminal 3xFLAG tag (natural protein, human, UniProt Q92985-4 1-516, looked up, phosphorylated (sites not given)) MPVPERPAAGPDSPRPGTRRAAPRVLFGEWLLGEISSGCYEGLQWLDEARTCFRVPWKHFARKDLSEADARIFKAWAVARGRWPPSSRGGGPPPEAETAERAGWKTNFRCALRSTRRFVMLRDNSGDPADPHKVYALSRELCWREGPGTDQTEAEAPAAVPPPQGGPPGPFLAHTHAGLQAPGPLPAPAGDKGDLLLQAVQQSCLADHLLTASWGADPVPTKAPGEGQEGLPLTGACAGGPGLPAGELYGWAVETTPSPGPQPAALTTGEAAAPESPHQAEPYLSPSPSACTAVQEPSPGALDVTIMYKGRTVLQKVVGHPSCTFLYGPPDPAVRATDPQQVAFPSPAELPDQKQLRYTEELLRHVAPGLHLELRGPQLWARRMGKCKVYWEVGGPPGSASPSTPACLLPRNCDTPIFDFRVFFQELVEFRARQRRGSPRYTIYLGFGQDLSAGRPKEKSLVLVKLEPWLCRVHLEGTQREGVSSLDSSSLSLCLSSANSLYDDIECFLMELEQPA",stoichiometry N,mass photometry [1],2
same,fold tighter Kd of dimerization than cIRF7,mass photometry [2],~6 fold
